Our source for the fold precipitation of Proinsulin over the anti-V5 control values is paper PMC7239452.

The target of this assay is ERp29 (ER protein of 29 kDa; mouse, Min-6 insulinoma cells) (mouse (endogenous in Min-6)) (UniProt P57759). As to the kind of experiment: co-IP; Min-6 lysate, non-denaturing; 50 ug lysate protein, 2 ul primary antibody 1 h, Protein G agarose 2 h at room temperature; precipitated Proinsulin quantified by Mercodia rat/mouse Proinsulin ELISA; controls: no antibody, anti-V5. In general terms: ELISA stands for enzyme-linked immunosorbent assay.

In the case of “Proinsulin (mouse, Min-6 insulinoma cells) (natural protein)”, the fold precipitation of Proinsulin over the anti-V5 control is over 10 fold.
